To fix the notation:
B1: CPEB3 Ribozyme (parent)
chain: GGGGGCCACAGCAGAAGCGUUCACGUCGCGGCCCCUGUCAGAUUCUGGUGAAUCUGCGAAUUCUGCUGU

This data set covers variants of B1. The experiment in a line: self-cleavage, relative activity (ratio to wild type); higher = more cleavage; co-transcriptional.
For the variant A16U G28A, the self-cleavage is 0.0797. With A16U G28C, the self-cleavage was determined as 0.166. As to A16U G28U, the self-cleavage is 0.131. Consider A16U G37A, for which the self-cleavage was 0.154. A16U G37U: the self-cleavage is 0.173. In the case of G17A C22G, the self-cleavage was 0.127. For the variant G17A C22A, the self-cleavage is 0.157. In the case of A16G G28C, the self-cleavage turned out to be 0.0652.

Take A16U C35G: the self-cleavage was determined as 0.213.

In the case of A16U C35U, the self-cleavage is 0.768.

As for A16U C35A, the self-cleavage stood at 0.159.

In the case of A16G C63A, the self-cleavage amounted to 0.648. As for A16G C63G, the figure is 0.527; as for A16U U61A, 0.93; as for A16U U61G, 0.902.

Consider A16U U61C, for which the self-cleavage turned out to be 0.599. As for G17A C24G, the self-cleavage was determined as 0.116.

Regarding G17A C24A, the self-cleavage worked out at 0.221.

In the case of A16U A42C, the self-cleavage worked out at 0.746. Turning to A16U A42G, the self-cleavage amounted to 0.739. On to A16U U44A, for which the self-cleavage was found to be 0.729. Take A16U U44C: the self-cleavage was 0.703. Regarding G17A A60U, the self-cleavage came to 0.203. For the variant A16C G19A, the self-cleavage worked out at 0.132. Regarding A16C G19U, the self-cleavage is 0.137.

For A16C G19C, the self-cleavage stood at 0.0843.

For the variant A16C G17U, the self-cleavage was found to be 0.127.

Consider A16C G17A, for which the self-cleavage amounted to 0.144. In the case of A16C G17C it was 0.0992; in that of A16C C39A, 0.108; in that of A16U U21A, 0.839. With A16U C24A, the self-cleavage was determined as 0.23.

Turning to A16U G58C, the self-cleavage was 0.756.

Regarding A16U G58A, the self-cleavage came to 0.866. Consider A16C G68C, for which the self-cleavage came out at 0.454.

On to A16C G68A, for which the self-cleavage came to 0.61.

With A16G U21G, the self-cleavage was found to be 0.395.

Turning to A16G U21C, the self-cleavage turned out to be 0.777. Regarding G17A A51G, the self-cleavage stood at 0.455. For G17A A51C, the self-cleavage was found to be 0.452. For the variant A16U A51U, the self-cleavage was 0.853. As for A16U A51G, the figure is 0.841; as for A16U C45A, 0.842. With G17A C66G, the self-cleavage was 0.233. For the variant G17A C66U, the self-cleavage was 0.347. Consider G17A C66A, for which the self-cleavage turned out to be 0.226. For the variant A16U G68U, the self-cleavage is 0.948. On to A16U G68C, for which the self-cleavage was determined as 0.875. In the case of G17A A40C, the self-cleavage was 0.145. Regarding G17A A40U, the self-cleavage is 0.2.

A16C C63G: the self-cleavage is 0.12.

For the variant A16C C63U, the self-cleavage was 0.19.

Consider A16C C63A, for which the self-cleavage was determined as 0.173.

Consider A16G A60U, for which the self-cleavage amounted to 0.207.

In the case of A16G A60C, the self-cleavage is 0.58.

In the case of A16G C32U, the self-cleavage was found to be 0.941.

Turning to A16U U53G, the self-cleavage amounted to 0.549. In the case of A16U U53A, the self-cleavage was 0.66. Take A16G A59G: the self-cleavage worked out at 0.944. Regarding A16G A59C, the self-cleavage came out at 0.417.

A16C C54G: the self-cleavage was determined as 0.152. Take A16C C54A: the self-cleavage came to 0.256. As for A16C C54U, the figure is 0.313; as for A16G U55C, 0.534; as for A16C G30C, 0.191.

As to A16U U67G, the self-cleavage was determined as 0.9.

Consider A16U U67A, for which the self-cleavage is 0.877. With A16U G41C, the self-cleavage came to 0.366. With A16G U67G, the self-cleavage worked out at 0.951. For the variant A16G U67C, the self-cleavage turned out to be 0.935. In the case of A16U G56U, the self-cleavage stood at 0.624. As for A16U G56A, the self-cleavage is 0.616. As to A16U G56C, the self-cleavage amounted to 0.82. As for A16G C45G, the self-cleavage amounted to 0.958. As for A16G C45U, the self-cleavage is 0.884.

Take A16G C45A: the self-cleavage was 0.811. Take A16G G37C: the self-cleavage was found to be 0.146. As for A16G G37U, the figure is 0.216; as for A16G A42C, 0.608. For the variant A16C U69A, the self-cleavage was determined as 0.451. Take A16C U69G: the self-cleavage came to 0.588.

Take A16C U26A: the self-cleavage was 0.158. Turning to A16C U26C, the self-cleavage turned out to be 0.264. For A16C U26G, the self-cleavage was found to be 0.102.

Take A16C G58A: the self-cleavage was 0.189.

On to A16C G58C, for which the self-cleavage was found to be 0.28. As to A16C G58U, the self-cleavage came out at 0.494. For the variant A16U C34A, the self-cleavage turned out to be 0.4.

As for A16U C34G, the self-cleavage was found to be 0.353. With A16U C34U, the self-cleavage was 0.892.

For the variant G17A G28A, the self-cleavage came to 0.145. As for G17A G28U, the self-cleavage amounted to 0.139. Consider A16C C27G, for which the self-cleavage came out at 0.122.

Turning to A16C C27A, the self-cleavage is 0.114.

On to A16C C27U, for which the self-cleavage was determined as 0.15. In the case of G17A A23U, the self-cleavage came to 0.585. Regarding G17A A23G, the self-cleavage is 0.243.

As for G17A A23C, the self-cleavage came to 0.483.

For the variant A16U A60G, the self-cleavage turned out to be 0.56. Consider A16U A60C, for which the self-cleavage was 0.227.

With A16U A60U, the self-cleavage is 0.251. For A16U U49G, the self-cleavage turned out to be 0.817. A16U U49A: the self-cleavage came to 0.96. A16U U49C: the self-cleavage amounted to 0.834. For A16G C39A, the self-cleavage is 0.591. As for A16G C39U, the figure is 0.808; as for A16G C39G, 0.745; as for A16C C22G, 0.0967. In the case of A16C C22A it was 0.105.

With A16C C24G, the self-cleavage was 0.171.

With A16C U43A, the self-cleavage was 0.118.

Regarding A16G U38A, the self-cleavage is 0.767. For the variant A16G U38C, the self-cleavage came out at 0.665. As for A16C U20G, the figure is 0.285. For the variant A16G G68C, the self-cleavage turned out to be 0.981. Regarding A16G G68U, the self-cleavage was determined as 0.956. As to A16C G28A, the self-cleavage is 0.103.

Consider A16C G28C, for which the self-cleavage was determined as 0.133.

Regarding A16C U55A, the self-cleavage worked out at 0.153. Turning to A16C U55G, the self-cleavage is 0.204. Turning to A16G A40U, the self-cleavage was found to be 0.409. With A16G A40C, the self-cleavage stood at 0.243. As for A16C C29U, the figure is 0.192. Regarding A16C C29G, the self-cleavage is 0.165. Turning to A16C C29A, the self-cleavage stood at 0.186. As to A16C G37A, the self-cleavage turned out to be 0.0923. For A16C G37U, the self-cleavage was 0.0859. As to A16C G37C, the self-cleavage stood at 0.176. Take A16U C57G: the self-cleavage is 0.246. As to A16U C57U, the self-cleavage is 0.196. For A16G C66G, the self-cleavage turned out to be 0.646. Turning to A16G C66U, the self-cleavage came to 0.89. On to A16G G30U, for which the self-cleavage was 0.201. For the variant A16G G30A, the self-cleavage was found to be 0.612. As for A16G G30C, the self-cleavage was 0.105. As for A16G G50U, the self-cleavage turned out to be 0.994. As for A16G G31U, the figure is 0.309; as for A16G G31C, 0.147.

On to A16G G31A, for which the self-cleavage stood at 0.527. Consider A16C C34U, for which the self-cleavage came out at 0.353. For A16C C34G, the self-cleavage is 0.168.

In the case of A16U C29G, the self-cleavage was found to be 0.243. Take A16U C29A: the self-cleavage was 0.288. As for A16U G31A, the figure is 0.482; as for G17A C34U, 0.524. In the case of G17A C34A, the self-cleavage was 0.2.

As to G17A A42C, the self-cleavage turned out to be 0.253. G17A A42U: the self-cleavage was found to be 0.314. With A16G U62C, the self-cleavage stood at 0.788. On to A16G U62A, for which the self-cleavage worked out at 0.712. As for A16C G65A, the self-cleavage was 0.155. On to A16C G65U, for which the self-cleavage was found to be 0.13. In the case of A16U C39G, the self-cleavage turned out to be 0.693. Consider A16U C39U, for which the self-cleavage was determined as 0.533. On to A16U C39A, for which the self-cleavage was found to be 0.317. As for A16G C35U, the figure is 0.893; as for A16C A60U, 0.103. In the case of A16U U69C, the self-cleavage was 1.02. In the case of A16U U69A, the self-cleavage was determined as 0.923.

In the case of A16U G65A, the self-cleavage was 0.442. On to A16C C33A, for which the self-cleavage turned out to be 0.213. With A16C C33G, the self-cleavage was determined as 0.0588.

Take A16C U61G: the self-cleavage is 0.848. Turning to A16U U38C, the self-cleavage came out at 0.625. Regarding A16U U38A, the self-cleavage stood at 0.424.

Take A16U U43G: the self-cleavage is 0.395. In the case of A16U U43A, the self-cleavage was found to be 0.615.
